Results published in patent US6045793.

Target: [Met-(-1)]rOncG20 (Rana pipiens)

Substance: Placental ribonuclease inhibitor (from UniProt P13489)
- Fold Difference of IC50 (ng/ml) in rabbit reticulocyte lysate, (+)PRI against (-)PRI: 0.9 fold
- IC50 (ng/ml) of the RNase for inhibition of protein synthesis in rabbit reticulocyte lysate, (+)PRI: 24 ng/mL
